In paper PMC9524020 (2022):

Key:
Assay in all cases: SPR
[1] = molecular target: FcγRIIIa-158V, FcγRIIIa-G2FS(2-6) (human)
[2] = molecular target: FcγRIIIa-158V, FcγRIIIa-Hybrid (human)
[3] = molecular target: FcγRIIIa-158V, FcγRIIIa-HEK^WT (human)
[4] = molecular target: FcγRIIIa-158V, FcγRIIIa-Monoantennae (human)
[5] = molecular target: FcγRIIIa-158V, FcγRIIIa-CHO^WT (human)
[6] = molecular target: FcγRIIIa-158V, FcγRIIIa-Oligomannose (human)
[7] = molecular target: FcγRIIIa-158V, FcγRIIIa-Afucosylated (human)
Sequence of FcγRIIIa-158V, FcγRIIIa-Afucosylated (human) (chain, as listed by the source): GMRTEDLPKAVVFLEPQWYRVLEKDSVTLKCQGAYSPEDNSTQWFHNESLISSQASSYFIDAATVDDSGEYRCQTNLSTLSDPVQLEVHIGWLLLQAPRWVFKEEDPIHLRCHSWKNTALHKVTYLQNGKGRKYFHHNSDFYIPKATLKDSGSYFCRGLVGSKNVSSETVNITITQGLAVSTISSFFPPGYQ

Sequence of FcγRIIIa-158V, FcγRIIIa-G2FS(2-6) (human) (chain, as listed by the source): as above
Sequence of FcγRIIIa-158V, FcγRIIIa-Monoantennae (human) (chain, as listed by the source): as above
Sequence of FcγRIIIa-158V, FcγRIIIa-CHO^WT (human) (chain, as listed by the source): as above
Sequence of FcγRIIIa-158V, FcγRIIIa-Oligomannose (human) (chain, as listed by the source): as above
Sequence of FcγRIIIa-158V, FcγRIIIa-Hybrid (human) (chain, as listed by the source): as above
Sequence of FcγRIIIa-158V, FcγRIIIa-HEK^WT (human) (chain, as listed by the source): as above

B1: IgG1-CHO^WT (anti-rabies human IgG1 mAb SO57 from the CHO wildtype clone) (antibody)
chain 1: QVQLVQSGAEVKKPGSSVKVSCKASGGTFNRYTVNWVRQAPGQGLEWMGGIIPIFGTANYAQRFQGRLTITADESTSTAYMELSSLRSDDTAVYFCARENLDNSGTYYYFSGWFDPWGQGTLVTVSS
chain 2: QSALTQPRSVSGSPGQSVTISCTGTSSDIGGYNFVSWYQQHPGKAPKLMIYDATKRPSGVPDRFSGSKSGNTASLTISGLQAEDEADYYCCSYAGDYTPGVVFGGGTKLTVL
modifications: N-glycan at Asn297: dominant G0F glycans with small amounts of G1F
- Kd [1]: 0.44 µM
- Kd [2]: 0.46 µM
- Kd [3]: 0.44 µM
- Kd [4]: 0.49 µM
- Kd [5]: 0.49 µM
- Kd [6]: 0.24 µM
- Kd [7]: 0.46 µM
